Measurements as given in publication PMC10180074, “Improved Stability and Catalytic Efficiency of ω-Transaminase in Aqueous Mixture of Deep Eutectic Solvents” (Molecules, 2023).

Key:
CC(=O)C(=O)O = experiment: Michaelis-Menten fit; acetophenone by HPLC; type: biochemical, Aspergillus terreus; details: phosphate buffer, no DES, 1-(R)-PEA co-substrate, PLP, pH 8.0, 40 °C
Source text: (§1) Michaelis-Menten fit; acetophenone by HPLC on ω-TA variant from Aspergillus terreus (E133A)

C[C@@H](N)c1ccccc1 = experiment: Michaelis-Menten fit; acetophenone by HPLC; type: biochemical, Aspergillus terreus; details: phosphate buffer, no DES, pyruvate constant, PLP, pH 8.0, 40 °C
Source text: as §1

ω-TA variant from Aspergillus terreus (E133A) (Aspergillus terreus NIH2624; E133A)
Km (CC(=O)C(=O)O): 640 ± 70 µM
kcat (CC(=O)C(=O)O): 0.54967 ± 0.0005 s⁻¹
kcat/Km (CC(=O)C(=O)O): 853 M⁻¹ s⁻¹
Km (C[C@@H](N)c1ccccc1): 650 ± 70 µM
kcat (C[C@@H](N)c1ccccc1): 0.8027 ± 0.000833 s⁻¹
kcat/Km (C[C@@H](N)c1ccccc1): 1230 M⁻¹ s⁻¹
